T1: human neuromedin U receptor 1 (human, UniProt Q9HB89 24-426)
T1 sequence (looked up): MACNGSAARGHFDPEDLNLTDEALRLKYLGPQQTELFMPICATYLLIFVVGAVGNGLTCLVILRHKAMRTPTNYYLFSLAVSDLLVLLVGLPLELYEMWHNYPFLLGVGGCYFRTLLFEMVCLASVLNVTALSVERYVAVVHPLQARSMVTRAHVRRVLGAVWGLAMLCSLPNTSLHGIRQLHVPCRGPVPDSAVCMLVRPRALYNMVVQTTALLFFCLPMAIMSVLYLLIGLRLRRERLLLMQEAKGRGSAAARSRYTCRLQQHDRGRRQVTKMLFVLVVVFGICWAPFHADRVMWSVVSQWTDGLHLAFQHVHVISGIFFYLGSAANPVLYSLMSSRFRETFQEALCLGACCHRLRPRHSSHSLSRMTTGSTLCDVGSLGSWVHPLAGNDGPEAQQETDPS

B1: C20DA-gGlu3-Sar15-AEPipAc-Tyr-Phe-NMeLeu-Nle-Orn-bAla-Arg-Gly-NH2 (peptide)
peptide: EEEXXXXXXXXXXXXXXXXYFLXXXRG
HELM: PEPTIDE1{[O=C(O)CCCCCCCCCCCCCCCCCCC(=O)[*:2]].[gGlu].[gGlu].[gGlu].[Sar].[Sar].[Sar].[Sar].[Sar].[Sar].[Sar].[Sar].[Sar].[Sar].[Sar].[Sar].[Sar].[Sar].[Sar].[O=C(CN1CCN(CCN[*:1])CC1)[*:2]].Y.F.[meL].[Nle].[Orn].[bAla].R.G.[am]}$$$$V2.0
SMILES: CCCC[C@H](NC(=O)[C@H](CC(C)C)N(C)C(=O)[C@H](Cc1ccccc1)NC(=O)[C@H](Cc1ccc(O)cc1)NC(=O)CN1CCN(CCNC(=O)CN(C)C(=O)CN(C)C(=O)CN(C)C(=O)CN(C)C(=O)CN(C)C(=O)CN(C)C(=O)CN(C)C(=O)CN(C)C(=O)CN(C)C(=O)CN(C)C(=O)CN(C)C(=O)CN(C)C(=O)CN(C)C(=O)CN(C)C(=O)CN(C)C(=O)CC[C@H](NC(=O)CC[C@H](NC(=O)CC[C@H](NC(=O)CCCCCCCCCCCCCCCCCCC(=O)O)C(=O)O)C(=O)O)C(=O)O)CC1)C(=O)N[C@@H](CCCN)C(=O)NCCC(=O)N[C@@H](CCCNC(=N)N)C(=O)NCC(N)=O
B2: C20DA-gGlu4-Sar12-AEPipAc-Tyr-Phe-NMeLeu-Nle-Lys-Pro-Arg-Gly-NH2 (peptide)
peptide: EEEEXXXXXXXXXXXXXYFLXKPRG
HELM: PEPTIDE1{[O=C(O)CCCCCCCCCCCCCCCCCCC(=O)[*:2]].[gGlu].[gGlu].[gGlu].[gGlu].[Sar].[Sar].[Sar].[Sar].[Sar].[Sar].[Sar].[Sar].[Sar].[Sar].[Sar].[Sar].[O=C(CN1CCN(CCN[*:1])CC1)[*:2]].Y.F.[meL].[Nle].K.P.R.G.[am]}$$$$V2.0
SMILES: CCCC[C@H](NC(=O)[C@H](CC(C)C)N(C)C(=O)[C@H](Cc1ccccc1)NC(=O)[C@H](Cc1ccc(O)cc1)NC(=O)CN1CCN(CCNC(=O)CN(C)C(=O)CN(C)C(=O)CN(C)C(=O)CN(C)C(=O)CN(C)C(=O)CN(C)C(=O)CN(C)C(=O)CN(C)C(=O)CN(C)C(=O)CN(C)C(=O)CN(C)C(=O)CN(C)C(=O)CC[C@H](NC(=O)CC[C@H](NC(=O)CC[C@H](NC(=O)CC[C@H](NC(=O)CCCCCCCCCCCCCCCCCCC(=O)O)C(=O)O)C(=O)O)C(=O)O)C(=O)O)CC1)C(=O)N[C@@H](CCCCN)C(=O)N1CCC[C@H]1C(=O)N[C@@H](CCCNC(=N)N)C(=O)NCC(N)=O
B3: C20DA-gGlu4-Sar12-AEPipAc-Tyr-Phe-NMeLeu-Nle-Dbu-NMeAla-Arg-Gly-NH2 (peptide)
peptide: EEEEXXXXXXXXXXXXXYFLXXARG
HELM: PEPTIDE1{[O=C(O)CCCCCCCCCCCCCCCCCCC(=O)[*:2]].[gGlu].[gGlu].[gGlu].[gGlu].[Sar].[Sar].[Sar].[Sar].[Sar].[Sar].[Sar].[Sar].[Sar].[Sar].[Sar].[Sar].[O=C(CN1CCN(CCN[*:1])CC1)[*:2]].Y.F.[meL].[Nle].[Dab].[meA].R.G.[am]}$$$$V2.0
SMILES: CCCC[C@H](NC(=O)[C@H](CC(C)C)N(C)C(=O)[C@H](Cc1ccccc1)NC(=O)[C@H](Cc1ccc(O)cc1)NC(=O)CN1CCN(CCNC(=O)CN(C)C(=O)CN(C)C(=O)CN(C)C(=O)CN(C)C(=O)CN(C)C(=O)CN(C)C(=O)CN(C)C(=O)CN(C)C(=O)CN(C)C(=O)CN(C)C(=O)CN(C)C(=O)CN(C)C(=O)CC[C@H](NC(=O)CC[C@H](NC(=O)CC[C@H](NC(=O)CC[C@H](NC(=O)CCCCCCCCCCCCCCCCCCC(=O)O)C(=O)O)C(=O)O)C(=O)O)C(=O)O)CC1)C(=O)N[C@@H](CCN)C(=O)N(C)[C@@H](C)C(=O)N[C@@H](CCCNC(=N)N)C(=O)NCC(N)=O

molecular target: T1, human neuromedin U receptor 1; test: cell-based or functional assay

EC50 (hNMUR1) buffer [nM]	Binder
> 1000	B1
1200	B2
> 1000	B3

Reference: patent US20240279278A1, “NMU RECEPTOR 2 AGONISTS” (Boehringer Ingelheim International GmbH, priority 2023, published 2024)
